These results are taken from US20230399384A1 (University of Texas, published 2023).

Like-named read-outs stand apart in the source and are kept apart here.

The target of test [1] is T1, sCoV2-RBD (Fc-tagged RBD of SARS-CoV-2 S protein) (SARS-CoV-2; human, UniProt P0DTC2 319-541). In words: ELISA titration on coated sCoV2-RBD. For orientation: An ELISA detects its analyte on a solid surface through an enzyme-linked reagent.
Test [2] addresses S protein of SARS-CoV (SARS-CoV, UniProt P59594 14-1195). The test can be described thus: ELISA, purified IgG1 on coated S protein.
Test [3] deals with sCoV-RBD (Fc-tagged RBD of SARS-CoV S protein) (SARS-CoV; human, UniProt P59594 306-527). The test can be described thus: ELISA, purified IgG1 on coated RBD protein.
Test [4] deals with T1, sCoV2-RBD (Fc-tagged RBD of SARS-CoV-2 …).
Test [5] has as its target SARS-CoV-2 S protein on live SARS-CoV-2-mNG reporter virus (SARS-CoV-2, UniProt P0DTC2 14-1273). In words: cell-based or functional assay.
In test [6] the target is T1, sCoV2-RBD (Fc-tagged RBD of SARS-CoV-2 …). The test can be described thus: BLI (Octet) blocking of ACE2 binding to captured sCoV2-RBD. A general note: In BLI a coated tip is dipped into the sample, and binding shifts an interference pattern.
Test [7] has as its target SARS-CoV-2 RBD protein (Sino Biological, Cat: 40592-V08B) (SARS-CoV-2, UniProt P0DTC2 319-541). The test can be described thus: BLI (Octet), mAb on Protein A sensor.

B1: CoV2-35 (antibody, V domains shown)
VH: QVQLHQWGAGLLKPSETLSRTCAVYGGSFSGYSWTWIRQAPGKGLEWIGEINHGGSTKYNPSLESRVTISVDTSKKQFSLELRSVTAADTAVYYCARGYDTNWYGDGYNWFDPWGQGTLVSVSS
VL: NFMLTQPASVSVAPGKTASITCGGDNIGTKSVHWYRQKPGQAPVLVIYYDSDRPSGIPERFSGSNSGNTATLTISRVEAGDEADYYCQVGDSSSHVVFGGGTKVTVL
For orientation: EC50 means the midpoint of the concentration-response curve. B1 came in with an EC50 in test [1] of 40 nM. Besides, the binding result in test [2] is reported as “no binding (tested: one concentration, not printed)”; in test [3], “no binding (tested: one concentration, not printed)”.

B2: CoV2-29 (antibody, V domains shown)
VH: QVQLVESGGGLVQPGGSLRLSCAASGFTFSSYWMSWVRQAPGKGLEWVANIKQDGSEKYYVDSVKGRFTISRDNAKNSLYLQMNSLRAEDTAVYYCARMADDDFWRDLPGFYMDVWGKGTTVTVSS
VL: QAVVTQPASVSGSPGQSITISCTGTSSDVGGYNYVSWYQQHPGKAPKLMIYDVSNRPSGVSNRFSGSKSGNTASLTISGLQAEDEADYYCSSYTSSSTLVFGGGTKVTVL
In general, IC50 refers to the concentration needed to halve the response being measured. A low value points to greater potency. With B2, the figures for the EC50 in test [4] and in test [1] were 4.04 nM and 4.05 nM, respectively. Moreover, the “NC50 (neutralisation of reporter SARS-CoV-2, Vero E6 cells)” value in test [5] was 1.13 µg/mL. Moreover, the binding result in test [2] is given as “no binding (tested: one concentration, not printed)”; in test [3], “no binding (tested: one concentration, not printed)”. The molecule further returned an IC50 in test [6] of 2.25 µg/mL.

B3: CoV2-32 (antibody, V domains shown)
VH: EVQLVESGGGLVQPGRSLRLSCAAPRFTFDDYAIHWVRQVPGKGLEWVSGSSWNSGTIGYAPSVKGRFTISRDNAKNSLFLQMNSLRVEDTALYYCAILPGDYNRVADVFDIWGQGTMVIVSS
VL: QAVVTQPPSVSGAPGQRVTISCTGSSSNIGAGYDVHWYQQLPGTAPKLLIYGNNNRPSGVPDRFSGSKSGTSASLAITGLQVEDEADYYCQSYDSSLSGYVFGTGTKVTVL
A word on the Kd: it is the concentration at which binding is half-saturated. Read a high Kd as a looser complex. As usually defined, the koff is the rate constant with which the complex falls apart. The low end stands for a long-lived complex, the high end for a short-lived complex. The term kon denotes a measure of how fast the partners come together. High values mean fast association, low ones slow association. B3: in test [1], the EC50 came to 12.6 nM. Besides, in test [7], the Kd was 1730 nM, the koff was found to be 0.00158 s⁻¹ and the kon stood at 915 M⁻¹ s⁻¹. Besides, the binding result in test [2] is on record as “no binding (tested: one concentration, not printed)”. Moreover, the binding result in test [3] is reported as “no binding (tested: one concentration, not printed)”. Further, the IC50 in test [6] came to 10.4 µg/mL.

B4: CoV2-33 (antibody, V domains shown)
VH: QVQLVESGGGLVQPGRSLRLSCAASRFTFDDHAMHWVRQAPGKGLEWVSGISWNGGIIGYADSVKGRFTISRDNAKNSLYLQMNSLRAEDTALYYCAKGMGFGESNYYAMDVWGQGTMVTVSS
VL: QSALTQPASVSGSPGQSITISCTGTSSDVGGYNYVSWYQQHPGKAPKLIIYDVSNRPSGVSNRFSGSKSGNTASLTISGLQAEDEAYYYCSSYTSISNLVVFGGGTKVTVL
In the case of B4, the EC50 in test [1] amounted to 10.8 nM. In test [7], this molecule yielded a Kd of 168 nM, a dissociation rate constant (koff) of 0.00137 s⁻¹ and a kon of 8180 M⁻¹ s⁻¹. Moreover, the binding result in test [2] was “no binding (tested: one concentration, not printed)”. Moreover, in test [3], the binding result is reported as “no binding (tested: one concentration, not printed)”. The molecule further had an IC50 in test [6] of 5.47 µg/mL.
